Measurements published in the supplement of paper PMC10567573.

B1: KCTD10 (parent)
chain: SSKEEQKLIATSNKPAVKLLYNRS

Variants of: B1
Assay: protein stability index of a GFP-peptide fusion (GPS, HEK-293T) (PSI 1-6); higher = more stable
Conditions: c terminus: a fixed tail appended
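Note: lentivirally expressed fusions sorted by FACS into six bins by GFP to DsRed ratio, PSI derived from sequencing read proportions per bin multiplied by bin number.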

Protein stability index of substitutions, site by site:
L19: F 4.12 | Q 4.31 | H 4.41 | N 4.72 | E 4.44 | A 4.59 | P 4.94 | G 4.13 | M 4.59 | S 4.18 | R 4.29 | I 4.59 | C 4.39 | K 4.69 | D 4.62
S2: Q 4.25 | R 4.07 | V 3.5 | M 4.13 | L 3.79 | F 3.57 | K 3.97 | Y 3.56 | P 4.45 | N 4.16 | G 4.25 | T 3.86 | I 3.88 | W 3.26 | H 3.99
I9: M 3.96 | T 4.18 | P 4.69 | C 3.91 | A 3.97 | F 4.08 | W 3.93 | V 4.34 | R 4.33 | K 4.39 | S 4.34 | N 4.36 | G 4.54 | Q 4.31 | D 4.74 | H 3.81 | E 4.72 | Y 4.41 | L 3.98
V17: Q 4.52 | T 4.28 | M 3.97 | G 4.3 | I 4.02 | A 4.34 | H 4.35 | F 2.74 | R 3.94 | C 4.21 | W 3.39 | S 4.3 | Y 3.51 | K 4.61 | D 4.41 | P 4.31 | N 4.76 | L 4.02 | E 4.15
K14: S 4.24 | R 4.2 | P 4.32 | T 4.04 | V 3.96 | M 3.76 | I 3.66 | L 3.8 | W 2.63 | N 3.96 | H 3.59 | Q 4.28 | D 4.57 | F 3.39 | Y 3.46 | E 4.39 | C 3.73 | G 4.03 | A 3.76
A16: D 4.18 | E 4.26 | C 3.74 | N 4.19 | R 3.8 | S 4.2 | M 3.84 | W 2.94 | T 4.1 | Y 3.56 | G 3.79 | Q 4.19 | P 3.95 | H 4.16 | V 3.89 | F 3.57 | I 3.97 | K 4.33 | L 3.54
K7: W 2.87 | A 4.1 | N 4.32 | R 3.92 | C 3.86 | S 3.55 | P 4.39 | G 4.45 | E 4.4 | F 3.02 | T 3.87 | Q 4.25 | I 3.28 | L 3.21 | H 3.85 | D 4.49 | M 3.3 | Y 3.29 | V 3.68
Q6: T 4.44 | H 4.08 | I 3.33 | A 4.23 | N 3.96 | D 4.5 | R 3.93 | Y 4.01 | C 4.15 | G 3.8 | K 3.1 | E 4.52 | S 3.86 | F 3.15 | L 3.59 | P 4 | V 3.6 | M 3.56 | W 2.79
S12: W 2.79 | T 4.34 | N 4.02 | V 3.88 | Q 4.26 | R 4.02 | Y 3.38 | E 4.42 | A 3.89 | K 4.27 | P 4.29 | C 3.81 | H 3.46 | I 3.92 | D 4.52 | L 3.72 | M 3.42 | F 3.34 | G 3.89
A10: E 4.51 | I 2.74 | S 4.01 | W 3.51 | Y 3.65 | Q 4.27 | G 3.86 | H 4.2 | V 3.45 | M 3.51 | C 3.88 | K 4.15 | N 4.41 | P 3.78 | D 3.78 | L 3.73 | F 3.44 | T 4.39 | R 3.88
N13: R 3.33 | C 2.31 | P 4.12 | M 3.69 | S 3.79 | G 4.28 | A 3.58 | H 3.9 | V 3.75 | K 3.96 | E 4.54 | D 4.73 | I 3.21 | Q 2.95 | W 2.67 | F 3.16 | Y 3.38 | L 3.3 | T 4
K3: E 4.16 | H 4.23 | Q 4.25 | F 3.83 | L 4.07 | Y 3.26 | W 3.93 | P 4.06 | C 3.86 | T 4.18 | A 4.67 | V 3.96 | N 4.04 | S 3.58 | D 4.5 | I 3.91 | R 3.97 | M 4.08 | G 3.32
K18: C 4.21 | D 4.25 | G 4.02 | A 4.05 | H 3.89 | S 4.39 | V 3.13 | T 3.74 | F 2.83 | M 3.45 | P 4.25 | W 2.4 | Q 4.39 | E 4.34 | L 3.25 | N 4.26 | I 2.34 | R 4.33 | Y 3.03
P15: R 3.51 | H 3.86 | K 3.39 | F 3.1 | T 3.73 | I 2.81 | M 3.47 | L 2.93 | W 2.19 | A 3.54 | N 4.08 | S 4.07 | D 4.2 | Y 3.1 | V 3.13 | Q 3.96 | E 4.53 | G 4.24 | C 2.96
E4: P 3.64 | K 3.69 | W 3.24 | T 3.26 | F 3.6 | H 3.09 | Q 4.06 | A 3.3 | G 3.46 | D 4.01 | M 2.82 | S 3.99 | I 3.06 | Y 2.83 | R 3.66 | L 3.52 | V 3.5 | C 3.55 | N 3.87
T11: L 3.7 | R 3.37 | W 3.35 | Y 3.6 | S 4.26 | M 3.6 | F 3.63 | Q 4.15 | A 4.42 | N 3.92 | I 3.73 | H 3.94 | P 3.97 | G 4.16 | V 3.75 | K 4.19 | E 4.58 | C 3.61 | D 4.68
E5: H 3.78 | W 1.79 | P 3.56 | F 2.26 | M 2.97 | A 3.38 | T 3.82 | S 3.87 | Y 2.97 | K 3.35 | R 3.59 | D 4.13 | Q 3.83 | G 1.71 | V 2.8 | L 2.83 | I 2.97 | C 3.34 | N 3.7
L8: E 4.96 | Q 4.6 | G 4.51 | R 4.34 | I 4.32 | V 4.66 | M 4.43 | T 4.47 | A 4.88 | N 4.31 | S 4.62 | W 3.79 | P 4.88 | K 4.75 | C 4.42 | H 4.46 | Y 4.02 | F 3.51 | D 4.88
